From patent US20060241040A1 (published 2006)

Columns and labels:
[1] = molecular target: T1, TLR4:Fc fusion protein (entire extracellular domain of hTLR4, amino acids 1-632, fused to the Fc portion of … (human; mouse, UniProt P01863 98-330 = IgG part); experiment: depletion of human serum with TLR4:Fc loaded protein A beads, read out on NF-κB reporter cells (FIG. 6A)
T1 construct: domain: C-terminal 233 amino acid Fc portion; Secreted by retrovirally transduced HEK293 cells; also called T4:Fc; TLR4:Fc chimera
T1 sequence (P01863 other isoform, or with tags, fused parts or gaps limits assumed): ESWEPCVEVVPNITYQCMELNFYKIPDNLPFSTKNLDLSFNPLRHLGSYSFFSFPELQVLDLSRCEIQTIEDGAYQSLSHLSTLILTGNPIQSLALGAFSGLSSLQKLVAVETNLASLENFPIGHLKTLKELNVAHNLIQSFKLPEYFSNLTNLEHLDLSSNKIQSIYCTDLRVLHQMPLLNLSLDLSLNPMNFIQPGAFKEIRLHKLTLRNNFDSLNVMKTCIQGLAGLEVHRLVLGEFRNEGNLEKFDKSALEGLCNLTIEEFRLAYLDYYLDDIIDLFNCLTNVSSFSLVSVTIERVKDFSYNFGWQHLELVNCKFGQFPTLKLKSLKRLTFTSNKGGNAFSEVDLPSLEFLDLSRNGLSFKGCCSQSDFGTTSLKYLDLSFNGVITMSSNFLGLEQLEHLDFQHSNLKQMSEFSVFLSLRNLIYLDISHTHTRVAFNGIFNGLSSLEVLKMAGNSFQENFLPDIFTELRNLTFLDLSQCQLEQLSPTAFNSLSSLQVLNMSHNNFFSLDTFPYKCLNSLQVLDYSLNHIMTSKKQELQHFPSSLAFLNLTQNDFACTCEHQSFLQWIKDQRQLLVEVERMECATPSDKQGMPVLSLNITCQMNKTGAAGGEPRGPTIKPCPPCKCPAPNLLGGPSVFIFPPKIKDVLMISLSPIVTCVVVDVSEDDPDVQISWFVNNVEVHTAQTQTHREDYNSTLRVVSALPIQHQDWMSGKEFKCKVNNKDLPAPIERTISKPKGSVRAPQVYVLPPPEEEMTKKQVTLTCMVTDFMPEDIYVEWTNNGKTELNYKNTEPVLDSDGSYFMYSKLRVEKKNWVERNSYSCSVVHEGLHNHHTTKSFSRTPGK
Procedure: Human serum was collected from healthy volunteers using standard serum Vacutainers™ blood collection tubes (Becton Dickinson) and clotted for 30 minutes at room temperature. The blood clot was removed by centrifugation and serum stored at −20° C. in 1 ml aliquots until use. MD-2 was removed from serum using immunoaffinity techniques using chimeric antibody-like proteins bound to protein A Sepharose™ beads (PAS). Human antibodies can potentially compete with the TLR chimeras for binding sites on protein A beads. Therefore, they were removed from serum by two preclearing steps, of two hours each, with 1/10 the volume of packed PAS beads.
HEK293 cells that had been transduced with retrovirus encoding the TLR:Fc fusion proteins were grown in protein free medium and served as the source of conditioned medium. TLR4:Fc and TLR2:Fc were captured from 50-100 ml of medium using 40 μl of packed PAS/ml for one hour at 4° C. Coated beads were then added to sera that had been precleared with PAS alone for 1 hour at 4° C. Human serum was diluted in DMEM to a final concentration of 20% v/v before use on reporter cells. Before each conjugation/treatment step, the beads were washed with 20% ethanol in PBS followed by equilibration in DMEM. Reconstitution with MD-2 was performed by adding the indicated amounts of recombinant purified MD-2 to the TLR4:Fc depleted stimulating media. […]

[2] = molecular target: T1, TLR4:Fc fusion protein (entire …); experiment: indirect ELISA-like assay: TLR4:Fc captured on protein A coated plate, MD-2 titrated 0.1 to 50 nM, Ni-HRP detection, absorbance at 450 nm; without LPS (dotted line)
Procedure: FIG. 4A is a line graph of MD-2^6xHis binding to TLR-4:Fc. MD-2^6xHis was added in titrated amounts (0.1 to 50 nM). To control for non-specific binding to protein A, 50 nM of MD-2 was plated in the absence of TLR4:Fc (“50”). […] The apparent […] of this interaction is of ˜12 nM.
To determine the Kd for the interaction between TLR4 and MD-2, an indirect ELISA-like binding assay was developed. Fifty μl of purified TLR4:Fc at 20 μg/ml (FIG. 4A) or at the concentration indicated in FIG. 4B was plated on protein A coated, high-protein binding 96 well plates. […] MD-2 bound to TLR4:Fc was detected using Ni-HRP (1:2,000 in PBS-Tween, Sigma), and developed by incubation with its chromogenic substrate per the manufacturer's instructions (DAKO, Carpinteria, Calif.). Each condition was measured in triplicate; the absorbance of each sample was measured at 450 nm; the results are presented as the average reading±SD.
In FIG. 4A, saturating amounts of TLR4:Fc were adsorbed to protein A coated 96 well plates and purified soluble MD-2 was added in titrated amounts. The 6×His tag present at the C terminus of MD-2 was detected using a Ni based HRP labeled reagent, and the presence of MD-2 bound to TLR4 was detected using a chromogenic substrate. […]

B1: endogenous soluble MD-2 in serum of healthy human donors (ligand)
chain: QKQYWVCNSSDASISYTYCDKMQYPISINVNPCIELKGSKGLLHIFYIPRRDLKQLYFNLYITVNTMNLPKRKEVICRGSDDDYSFCRALKGETVNTTISFSFKGIKFSKGKYKCVVEAISGSPEEMLFCLEFVILHQPNSN
notes: Natural protein in serum; also called sMD-2; serum MD-2
B1: binds [1].

B2: C-terminally 6×His tagged human MD-2, baculovirus-derived (Sf9 insect cells), purified (ligand)
chain: QKQYWVCNSSDASISYTYCDKMQYPISINVNPCIELKGSKGLLHIFYIPRRDLKQLYFNLYITVNTMNLPKRKEVICRGSDDDYSFCRALKGETVNTTISFSFKGIKFSKGKYKCVVEAISGSPEEMLFCLEFVILHQPNSNHHHHHH
notes: Purified from supernatants (secreted); also called MD-2^6xHis; MD-2^6×His
B2 was tested, and the Kd [2] was roughly 12 nM.
